The data set is described as follows: protease stability score; higher = more stable; yeast display proteolysis, trypsin and chymotrypsin.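 Note: relative to predicted unfolded state with 0 unfolded-like and 1 meaning tenfold more protease.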
Take “DEVHEEAERASEHFFESLLTGDEKSTESFIDPHAKMEFSFNGRNYDMIGRMWVEIEHRLLGIDHYIHKDNRTHSQGEKLLLIIHGRIRVGDKEFDVELHVIMMKIDGQWNVKRLEVRVK”: the protease stability score is 1.25.

“SEHDHHSEWMSRLMFEAWLTGDEDFIMHLADPNTRSHLHYGDKEVNLHGRESFKRMVEELHRELGANHRDLKEVRLQGDKSLLRLEVRVGDKRREQHIIIIIVNGRVKSITVEVR” displayed a protease stability score of 0.874.

On to “SEEDEDKELVRHLVEKLIKTGDETLMHEMFDPNARLRVNGRDFHGRESIVKAMLEFLRWLGVDHIHFEHIIVRIVDGRIEINVTVRVEQGDKRTELRIHTRATKIDGKWILTSLTLDVR”, for which the protease stability score was determined as 1.13.

“DEHEEDVSKFTKMWEEDIRTGDEDSLYKMIDPHALLDFNGKEIIGREEVMHILHEELRELRIHNVHTHDIKVQGNKVNLNIRFNIEINGRIYDLQYKYDWRKINGRWFAHSEVIR” yielded a protease stability score of 0.764.

For the sequence “KEHNDALELMYHWLIHLWKTGDERDIYELFDPNVRVDVNGRELHGMELVSHIELREMKRLGFKVIHIELTSVRYIGDKIEIDTIFHLHVGEYTERREHHILSYKVDGRWFVKESEVN”, the protease stability score was 1.18.

The sequence “DEEKEHAKEMLELHLRLWLTGNEDKLHRLADPHVRMTIDGKEFIGREEMIKAIREHLKRLGVDHVRIHWTRLHVVDGQIDLHTHIRLHVDGRTIEIESEIISVVFNGVMKSIEWKFK” returned a protease stability score of 1.38.

As for “HEDDEMKKKWFEEWERRIHTGDEEEINKLADPHVRLEIGDKTRHGREEFTRYLWEFLYEFGANHVEIRYEEIRIINGVVHIRSRIHIHVDGRHIHLETHLIVFKFDGQWRLHTLHYK”, the protease stability score is 0.872.

“DEDEEQAERAIRIYTEVLNTGNEEESERMADPHVRIIVNGVILHGREMFYQYVHEWRVDIRVILRHVKVFEGWVDVEGEFNSHLEVNGRHENNRSKVRLHILKVNGVWLIHEVRVH” came in with a protease stability score of 1.5.

For the sequence “DERTEHNRQLAEEITRALLTGDWHEIEKQADPHVKFRQGEFSYVGREDLVRFWEEFIKKIKNITLRIREIRVIGDKVHIHNDLKIGDKETHVHIILVLIDGRLHHLEIRIE”, the protease stability score came out at 1.45.

Sequence “SEEKHDSEKLSHLLDHEWLTGDEESFRKLADPHVKSNINGVRLHGWRELHQFLDEHFNHLGAKIEDSDTEHIHTQGDKAFIHSTFVLLVNGKRIELETFFRSRKFDGRWVLTEVHVH” showed a protease stability score of 0.521.

Turning to “SERDEEAKHLSEEIIRLWRTGDWKTFVRMLDPNDRMEVDGQSFHGMEDVIKFLLDFWKHLRIEDIRFRDLKYQGDKASSHTEVDVRIGDKQTRLHTEVDVLVVNGKLKSHRIKIE”, the protease stability score was 1.08.

“SELEEEAKELIEEWLHSFSTGDEKKLYELADPDDRLLFNGVEFVGREEMLKNFRDLYRKWGVTRVEADVKRIHVFNGVAHSDTVSHYNGVRVKTHLVIEKINGRWRVSSLHIH” showed a protease stability score of 1.42.

Consider “DHEEKAKKFFDDLLRAVKHNDETQLERLFDKNVRFNVGEHNFRGREEFVKMVRTMVEQVDHVTATIVSIETNGDKVNLVAQWDMSHNGNSKRIRVLVVLDDNNGRVVAREMSEK”, for which the protease stability score was 1.98.

In the case of “SEEEELALRFWHELTHYRETGDEESLLKYVDPHVRLDVNGKDIHGMEEIARFLVEIRVKIETHVHDIKLINGKIHMDVRLHIEFDIDGKNVKRRHESRVIVRKVNGKWIIKTFELT”, the protease stability score was 0.53.

Consider “DEEEERFEEVWRRLARALETGDEETVRHLIDPNVLIIIGDKTIHGWESLSTYLKEIRLTISDMRVRSRSEVNGKLEFDTHTHRVVFINGVELHVEERIHITMLKIDGRWHIHSIEFR”, for which the protease stability score stood at 1.45.

Turning to “SEEDEVTEKLVRLMIHAHHTGDEDLLKTLADPNVRLTIDYNGVKLTSHGREEFVRLLREWKRQIRIEDRKTTESHVYGNFAINNHVELGEFDGRRDRFEVRLHFVVFNGRVKEEKIKFD”, the protease stability score came to 1.45.

“SEEEELDKKAFKLWIHSLRTGDEDLITELADPRVKMTIGDKEFHGREEFKHAMHELLKRVDHIKDVKLKHWDVINGRLHVIVEVNGNVDGRETYIETSMTSLKINGRWILQSWSVR” gave a protease stability score of 1.31.

In turn, “DERTEYFIREAREMLRDWVTGDWKRLHELMDPNARQDVNGVKNVGRDELSEFFEKFRERFDVYELRITEERHQGNKFIVKGDFHSNQGEFTFHHELEVHIVVVNGQFKRIEMRIR” displayed a protease stability score of 1.55.

“DEHEDDARRMWELLEHDLQTGDEESIHRLVDPNAKVVYGDKEFVGREVLLRFASEWRVHLMHLDDIKIRTYGDKIDIDTTTITNGEFNGRKHVTRTHLRVHFEKVNGKWYVREVIIEIH” returned a protease stability score of 1.31.

“DEDEEKARKFTELLVRSWRTGDEDSLREMVDPHVRVDVDGVKLHGWHDFMKLVRHIRVRDLHNREFTFFEGRADIIQETDVDIGDKERRTVITIRMTKYDGRWFLHNVTVH” returned a protease stability score of 1.38.

The sequence “SESEDQAHKFSEEWIKAFETGDEEHMNRLVDPNVRIEVGDKEHHGRHVYLEILKRLGANHVRIHIEDIEVQGEKLIIHGKIIITVGDKVIEIRTIIIVTKIDGRWRIKDIIFH” displayed a protease stability score of 1.39.

Sequence “DRHEKIALEMARIILELLYTGDEDTFKHLADPNVKLHLDINGRHFEHHGREEHEKWSRELERHMRITDIKIDDEKVQGDWVHIDSTIVMRIGDKSSIHKMHFIFQIVDGRIKNMEVVIK” returned a protease stability score of 1.38.

Turning to “DEEEEMSKEATEWFKRVSKTGDEKDLVEFLDPNVLLEIGDKRFHGREVASHWMTRMFHEIRIRHIEEKEFRIYNGRATLHEHLDIEFDGRTSKIHVTVVYIKVNGRWFMESLHIR”, the protease stability score stood at 0.808.

As for “SERHEESHERTRLLMHAHETGDFHTLQRLMDPDTRLLIIFNGREIHIHGMESAFKFFNEIRISHVTIHRVDIQGDKVNVDGEQEGQINGQRSRNRIHWDIDVIDGKIKRIIVEIR”, the protease stability score turned out to be 0.993.

With “DDDKREMEEIARRWVESLETGDEDTLTKLADPNTKLELLIDGRENNLIGMRYWLEFLERFKNVTIKFKRMRVQGDKADIETEVNINGQRFRVRIELWVIDGRLHTLHIRIE”, the protease stability score is 1.23.

In the case of “DHLHEDSKEAFHLWKELSRTGDPKEFADNVDPNVRILINGKRYHGMEHLEHLMMELGIKHSEITRIDTIGDKLHLDGHNRFNGRTVDVHILSNKINGRWVIEEVEVL”, the protease stability score turned out to be 1.14.

As to “DEEEEDAHRLMHNVVHALRTGDWEEFSRLLDPNVMVIIGDKLFIGRETVLEMIKRMLDDWGVTRIHLHIHSKHVQGNKLHVDSQIDVNGRTTRVHIDATKIDGRWLLKRIEIK”, the protease stability score is 2.14.

In turn, “SETEEWQHQILEILERIQKTGDPHEFMHNADPHVRLHVNGRDFHGMELFKEMFEKFGAKVSHLRDVDIQGDKIHVDGELEFNGVTHKSHVDARKVDGRWVLTRYTIK” yielded a protease stability score of 0.415.

Turning to “DEMEREVEKWVRIYLHALRTGDERILENMVDPEARTHINGRHDHGRDSLHKILKEMGFDHMHVEIRDVRVVNGQIHLEEIIRVDVDGRRITITVEVVIVKIDGRWIVKSFHIR”, the protease stability score came to 1.17.

Regarding “DEEEELVREFLHRLKQSHETGDEKMYRENADPDVRIEVNGVTIHGMERATRWASEMRFKHEELRHIEVDENHVHIDGIVKGRINGRDVETKVHFHVRKVNGVWLLKRIKFT”, the protease stability score is 0.956.

On to “DEHERLLIKIARIITNLLLTGDEDIMEELADPNVRFELDFNGVDIHLIGMDFWRHNLEHWWVDHFRLEDVKIQGDYAHLKLNVHMEINGRRHETHTRLSIVVVNGKLKSMRFHLI”, for which the protease stability score is 1.2.

The sequence “SEDEEYMHNVARLLMESLLTGDEKTLKELFDPNTRVDINGKDIHGREDILTDWKRREHEWRVEDIKIEHEEVQGNKAVLHGKVTGDINGVKTHIHRDVHWEVINGKLKYVKFEHR” displayed a protease stability score of 1.12.

Regarding “DEENDLMLEMAFKFMHDWLTGDFDKETKLADPDVKYDVGEFRFHGREEVTKWLEDMERSLGIDHQFLNIHDLKVQGDKVHIKGELVLIVNGRKETRRVDLHFEIVDGRMRKVTIEKR”, the protease stability score is 1.

“DEEKEEAEHFFHFFFHLLITGDEEQWFRLADPNMRVRVNGVLLHGREIWERLVQEIRVNHMHLDRMEIHVFNGRMDVYIIGHVRRIIGDKEETTTVHIRIVMFKVNGRWVIHAVEEDYR” showed a protease stability score of 1.81.

The sequence “DREEEHTRTLAKELFEIFLTGDFDRFSELADPNTRLRIIINGVEFRDHGMEFWQWWVDEIRIHSYRMRDMRVFNGQAILLSTSDVEFNGRRHETTVEFVLVIVNGRIKSVTIIVR” displayed a protease stability score of 1.69.

In turn, “SEDEEMSKEASEWMLEIILTGDEDSLRKLLDPDYRLHVDGQEFHGRENVVKAFMEWLQRFGIKHIHLEDTRIEVQGDKVIVHERTHVDVNGKKTETELFLIALKFDGKWMTHSIEIRYE” gave a protease stability score of 2.09.

“SELEHWAERLTRILIHSLYTGDEESLLKLADPRVRNDVNGVHVVGMEWFLKVWNKYRDELRIHHIEVRDIKIINGVAHSTVREDGEINGKKLDVETHVELDTVNGRLRIVHIRIV” yielded a protease stability score of 1.58.

Take “DEETKKLRKFMEQFIEALRTGDEEILEHLIDPNVRNIVGDKQEHGRELLLTWLVKYKGVRWMIDHITIINGVIEIHGTLQVGDKEISIHIHVLVINGKVKSVEIREN”: the protease stability score came to 1.47.

“DEHKESLKRAFELWVETVKTGDEQRTEELIDPHVRVVIGDKEIHGMKETSRHILEMRVKSFRLRHYHFVNGRVNILGEIDGEFDGRRRDVDITIHIQKFNGRWLIDELHFG” registered a protease stability score of 2.27.

“VETEERLHDIVHSIIRLDETGDEQDFDRLVDPNAKFDIDGKELHGRDNFRHMWARYRRELGVDHIQFKHVFIQGDKIHQERRVTIGDKTYNMHVDLVVIDGRIQHVRYRIR” had a protease stability score of 1.56.

As to “LEEEEIARELLKRILDMLFTGDEEVLSELLDPNVRVDFNGVEIHGREHVREWMHHLRFRHLHLRDFRVQGDKLHLDTETRGEIDGQEVRIETRLIARKVDGRWILKSREFV”, the protease stability score turned out to be 1.53.

“SDLDRLLEEMAKRFVEVMLTGDEEIMKELIDPNARVDWDGVEIHGWKEISEWLKEEIERQENYRYEFEFRDLDVIGNKAVFFTDLHFNINGRRIRTHSVYKVNVVNGKVKHVHVEIR” registered a protease stability score of 1.21.

In the case of “SEIEEFTRKLLEMFLEAFLTGDWKFLWELADPNVRLNVGDKHAHGMESSKHLLDEWLTEMRLRDMHVHSVHFQGEKRDNNGKEHRIYGDKVRLWDVHLHLVIVNGRLKEVNIEER”, the protease stability score came to 1.31.

Take “HEEEEEVKEALKELKELLETGDEDLWRRLADPDTRFELEFEGRHFHLHGWEAVLHFIREIKRRFKNVQFDWKRLNTQGNFAHMHVEIRVGDKIIHLDIIVLKYNGQWLDKRVRIFFE”: the protease stability score was 1.91.

“DERDELLEHVIKLHQDALRTGDEHTLTELMDPHVRVIIGDKHHHGWESITKYLRELRFHSHEVHIDHVHIFNGRIHADITLRGTHHFNGRTFHDTHKVELINTKINGKWTIESLIIR”: the protease stability score is 1.15.

Regarding “SEDNEIIHEMVQLFVDLFFTGDWEMLLSLFDPNVRMIVNGKTIHGRENIAHEVREFLERFKNVRFRDATIEHYSWQGDKLHAQIHIEGEINGRDRHSNVHIHITKIDGKWLITRIEVR”, the protease stability score was found to be 2.39.

“DERMEVIEELLKKISHALYTGNEKLLEQMADPNVRLEIGDKEFVGWEQLLELIREIRLSITDIDIRDERLIGNKIHLRGESRTIHVIGDKTWEERRDVHFVILKIDGKWVMHEIEYR” yielded a protease stability score of 1.95.
